T1: TFAM (UniProt Q00059 43-246)
T1 sequence: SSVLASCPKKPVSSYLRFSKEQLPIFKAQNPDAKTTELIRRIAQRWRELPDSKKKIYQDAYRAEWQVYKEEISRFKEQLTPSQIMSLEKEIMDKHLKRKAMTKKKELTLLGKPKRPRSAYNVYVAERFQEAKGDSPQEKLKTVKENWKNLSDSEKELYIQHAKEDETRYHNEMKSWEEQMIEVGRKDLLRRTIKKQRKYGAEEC

B1: DNAGG (dsDNA)
DNA 1: AAAAAGAACCATTTGGATACATAGGTAT
DNA 2: ATACCTATGTATCCAAATGGTTCTTTTT
B2: DNAAA (dsDNA)
DNA 1: AAAAAGAATCATTTGGATATATAGGTAT
DNA 2: ATACCTATATATCCAAATGATTCTTTTT
B3: DNA2GG (dsDNA)
DNA 1: CTGAAGCCAGTTACCTTTGAAAAAAGAGTTGGTAGCTCTTGATCCAGGAATTCAACCACCGCTGGTAGCGGTGGTTTTTTTATTTGCAAGCAGCAGATTA
DNA 2: TAATCTGCTGCTTGCAAATAAAAAAACCACCGCTACCAGCGGTGGTTGAATTCCTGGATCAAGAGCTACCAACTCTTTTTTCAAAGGTAACTGGCTTCAG
B4: LSP_B (dsDNA)
DNA 1: AATTGTCAGTGGGGGGTTGATT
DNA 2: AATCAACCCCCCACTGACAATT
B5: NS2 (dsDNA)
DNA 1: ATCGGAAAGATAATCGAGAATC
DNA 2: GATTCTCGATTATCTTTCCGAT

Columns and labels:
TFAM [1] = target: T1, TFAM; assay: fluorescence polarization; 350 mM NaCl; EMSA: 10 mM HEPES pH 8.0, 500 mM NaCl, 2 mM DTT, 130 ug/ml BSA, 5% glycerol, 100 nM DNA, 30 min on ice then 10 min RT; FP: 10 mM HEPES pH 8.0, 150-400 mM NaCl; details: protein: recombinant; tags: His-MBP N-terminal, removed by TEV; label: 5'-Cy3 on strand 1 (EMSA); 6-FAM (FP); blunt
TFAM [2] = target: T1, TFAM; assay: EMSA; 500 mM NaCl; apparent Kd; EMSA: 10 mM HEPES pH 8.0, 500 mM NaCl, 2 mM DTT, 130 ug/ml BSA, 5% glycerol, 100 nM DNA, 30 min on ice then 10 min RT; FP: 10 mM HEPES pH 8.0, 150-400 mM NaCl; details: protein: recombinant; tags: His-MBP N-terminal, removed by TEV; label: 5'-Cy3 on strand 1 (EMSA); 6-FAM (FP); blunt
TFAM [3] = target: T1, TFAM; assay: fluorescence polarization; 150 mM NaCl; EMSA: 10 mM HEPES pH 8.0, 500 mM NaCl, 2 mM DTT, 130 ug/ml BSA, 5% glycerol, 100 nM DNA, 30 min on ice then 10 min RT; FP: 10 mM HEPES pH 8.0, 150-400 mM NaCl; details: protein: recombinant; tags: His-MBP N-terminal, removed by TEV; label: 5'-Cy3 on strand 1 (EMSA); 6-FAM (FP); blunt
TFAM [4] = target: T1, TFAM; assay: fluorescence polarization; 300 mM NaCl; EMSA: 10 mM HEPES pH 8.0, 500 mM NaCl, 2 mM DTT, 130 ug/ml BSA, 5% glycerol, 100 nM DNA, 30 min on ice then 10 min RT; FP: 10 mM HEPES pH 8.0, 150-400 mM NaCl; details: protein: recombinant; tags: His-MBP N-terminal, removed by TEV; label: 5'-Cy3 on strand 1 (EMSA); 6-FAM (FP); blunt
TFAM [5] = target: T1, TFAM; assay: fluorescence polarization; 200 mM NaCl; EMSA: 10 mM HEPES pH 8.0, 500 mM NaCl, 2 mM DTT, 130 ug/ml BSA, 5% glycerol, 100 nM DNA, 30 min on ice then 10 min RT; FP: 10 mM HEPES pH 8.0, 150-400 mM NaCl; details: protein: recombinant; tags: His-MBP N-terminal, removed by TEV; label: 5'-Cy3 on strand 1 (EMSA); 6-FAM (FP); blunt
TFAM [6] = target: T1, TFAM; assay: fluorescence polarization; 250 mM NaCl; EMSA: 10 mM HEPES pH 8.0, 500 mM NaCl, 2 mM DTT, 130 ug/ml BSA, 5% glycerol, 100 nM DNA, 30 min on ice then 10 min RT; FP: 10 mM HEPES pH 8.0, 150-400 mM NaCl; details: protein: recombinant; tags: His-MBP N-terminal, removed by TEV; label: 5'-Cy3 on strand 1 (EMSA); 6-FAM (FP); blunt
TFAM [7] = target: T1, TFAM; assay: EcoRI cleavage protection; 10 mM MgCl2, 50 mM NaCl; EMSA: 10 mM HEPES pH 8.0, 500 mM NaCl, 2 mM DTT, 130 ug/ml BSA, 5% glycerol, 100 nM DNA, 30 min on ice then 10 min RT; FP: 10 mM HEPES pH 8.0, 150-400 mM NaCl; details: protein: recombinant; tags: His-MBP N-terminal, removed by TEV; blunt
TFAM [8] = target: T1, TFAM; assay: X-ray crystallography; 2.7 A; EMSA: 10 mM HEPES pH 8.0, 500 mM NaCl, 2 mM DTT, 130 ug/ml BSA, 5% glycerol, 100 nM DNA, 30 min on ice then 10 min RT; FP: 10 mM HEPES pH 8.0, 150-400 mM NaCl; details: protein: recombinant; tags: His-MBP N-terminal, removed by TEV
TFAM [9] = target: T1, TFAM; assay: X-ray crystallography; 2.84 A; one TFAM bridges two DNA molecules; EMSA: 10 mM HEPES pH 8.0, 500 mM NaCl, 2 mM DTT, 130 ug/ml BSA, 5% glycerol, 100 nM DNA, 30 min on ice then 10 min RT; FP: 10 mM HEPES pH 8.0, 150-400 mM NaCl; details: protein: recombinant; tags: His-MBP N-terminal, removed by TEV; 2 DNA molecules bridged per TFAM; ends stacked

Binder	Kd (TFAM [1]) [nM]	Kd (TFAM [3]) [nM]	Kd (TFAM [4]) [nM]	Kd (TFAM [5]) [nM]	Kd (TFAM [6]) [nM]	also measured
B1	5180 ± 502	13.5 ± 0.1	1210 ± 113	55.5 ± 6	259 ± 48.2	Kd (TFAM [2]): 86.1 ± 14.3 nM
B2	3850 ± 425	12 ± 1.5	877 ± 38.5	79 ± 1.4	287 ± 15.7	
B3						binding result (TFAM [7]): binds
B4						binding result (TFAM [8]): binds
B5						binding result (TFAM [9]): binds

From PMC8754647, “A minimal motif for sequence recognition by mitochondrial transcription factor A (TFAM)”
